The values below are quoted from earlier work in patent US9056141B2, “Thiol-ene click chemistry for drug conjugates” (priority 2012, dated 2015).

The conditions of the data set: patients receiving Adcetris treatment.

With brentuximab vedotin [Adcetris], the “patients in clinical trials experiencing serious adverse events” value was 31%. The “patients discontinuing the treatment due to adverse events” value (clinical trials) is given as 21%.
